Experimental data: patent US20160279215A1, “NOVEL PEPTIDES AND COMBINATION OF PEPTIDES FOR USE IN IMMUNOTHERAPY AGAINST VARIOUS TUMORS” (immatics biotechnologies GmbH, priority 2015, published 2016)

These molecules were tested against T1, HLA-A*02:01 (Homo sapiens, UniProt P04439, D140Y/D185E/D98H/E176V/E277Q/G131W/G231S/I119V/I121R/I166T/I218V/L300P/L318F/N151K/N90K/P208A/P217A/Q86G/Q94H/R138H/R169H/T345S) (assay: MHC binding assay: UV-ligand exchange with β2m ELISA (peptide exchange yield)). Details: binding to HLA-A*02:01 evaluated by peptide exchange yield (UV-ligand exchange, β2m ELISA).
T1 construct: made in house
Method in brief: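 Exchange yield, UV-ligand exchange: 100-fold diluted samples on streptavidin plates, 1 h at 37 °C; HRP anti-β2m 1 h at 37 °C; TMB read at 450 nm.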

Molecule | Peptide exchange
272 (FVMEGEPPKL; listed as Homo sapiens) [compound 272] | ++ (≧20% = ++)
273 (SLNKQIETV; listed as Homo sapiens) [compound 273] | ++ (≧20% = ++)
274 (TLYNPERTITV; listed as Homo sapiens) [compound 274] | +++ (≧50 = +++)
276 (RMPTVLQCV; listed as Homo sapiens) [compound 276] | +++ (≧50 = +++)
277 (KLQEELNKV; listed as Homo sapiens) [compound 277] | +++ (≧50 = +++)
278 (VLEDKVLSV; listed as Homo sapiens) [compound 278] | +++ (≧50 = +++)
279 (VLMDEGAVLTL; listed as Homo sapiens) [compound 279] | ++ (≧20% = ++)
280 (HLWGHALFL; listed as Homo sapiens) [compound 280] | +++ (≧50 = +++)
281 (LLLESDPKVYSL; listed as Homo sapiens) [compound 281] | ++ (≧20% = ++)
282 (SLYALHVKA; listed as Homo sapiens) [compound 282] | ++ (≧20% = ++)
283 (ALSELLQQV; listed as Homo sapiens) [compound 283] | +++ (≧50 = +++)
284 (KLMDPGSLPPL; listed as Homo sapiens) [compound 284] | ++ (≧20% = ++)
285 (MLLDTVQKV; listed as Homo sapiens) [compound 285] | +++ (≧50 = +++)
286 (FLTEMVHFI; listed as Homo sapiens) [compound 286] | +++ (≧50 = +++)

These molecules were tested against T2, HLA-A*02:01 (human) (assay: UV ligand-exchange ELISA (anti-b2m); +++ = exchange yield >=50). Details: not given.
T2 construct: MHC monomers captured on streptavidin plates; the UV-sensitive peptide is cleaved and exchanged with the test peptide; also called peptide-receptive MHC molecules; MHC class I
Excerpt: Candidate peptides for T cell based therapies according to the present invention were further tested for their MHC binding capacity (affinity). The individual peptide-MHC complexes were produced by UV-ligand exchange, where a UV-sensitive peptide is cleaved upon UV-irradiation, and exchanged with the peptide of interest as analyzed. Only peptide candidates that can effectively bind and stabilize the peptide-receptive MHC molecules prevent dissociation of the MHC complexes. To determine the yield of the exchange reaction, an ELISA was performed based on the detection of the light chain (β2m) of stabilized MHC complexes. The assay was performed as generally described in Rodenko et al. (Rodenko et al., 2006).
96 well MAXISorp plates (NUNC) were coated over night with 2 ug/ml streptavidin in PBS at room temperature, washed 4× and blocked for 1 h at 37° C. in 2% BSA containing blocking buffer. Refolded HLA-A*02:01/MLA-001 monomers served as standards, covering the range of 15-500 ng/ml. Peptide-MHC monomers of the UV-exchange reaction were diluted 100 fold in blocking buffer. Samples were incubated for 1 h at 37° C., washed four times, incubated with 2 ug/ml HRP conjugated anti-β2m for 1 h at 37° C., washed again and detected with TMB solution that is stopped with […]. Absorption was measured at 450 nm. Candidate peptides that show a high exchange yield (preferably higher than 50%, most preferred higher than 75%) are generally preferred for a generation and production of antibodies or fragments thereof, and/or T cell receptors or fragments thereof, as they show sufficient avidity to the MHC molecules and prevent dissociation of the MHC complexes.

Molecule | peptide exchange yield [%]
AALEVLAEV | 50 to 75
TLQEWLTEV | 50 to 75
GLQDGFQITV | 50 to 75
QLREAFEQL | 50 to 75
FLDSQITTV | 50 to 75
TLGEIIKGV | 50 to 75
SLYPHFTLL | 50 to 75
VLLDMVHSL | 50 to 75
ALADLSVAV | 50 to 75
VIFEGEPMYL (also called HORMAD1-001) | 50 to 75
SLLDLVQSL | 50 to 75
YTFSGDVQL (also called MMP1-003) | 50 to 75
MLIIRVPSV | 50 to 75
FLISQTPLL | 50 to 75
YLDPLWHQL | 50 to 75
AQLEGKLVSI | 50 to 75
QLYGSAITL | 50 to 75
RLHDENILL | 50 to 75
ALSYILPYL | 50 to 75
ALINVLNAL | 50 to 75
RLLDPKTIFL | 50 to 75

Molecule | peptide exchange yield [%]
ILAQDVAQL | 50 to 75
LLWAPTAQA | 50 to 75
SLLDYEVSI | 50 to 75
RLYEEEIRI | 50 to 75
MLWESIMRV | 50 to 75
SLADLSLLL | 50 to 75
LVVDEGSLVSV (also called …) | 50 to 75
LLGDSSFFL | 50 to 75
RLIDIYKNV | 50 to 75
LLWDAPAKC | 50 to 75
SLSTELFKV | 50 to 75
ALEEKLENV | 50 to 75
GLLSALENV | 50 to 75
ALLNNVIEV | 50 to 75
GLLGNLLTSL | 50 to 75
IILENIQSL | 50 to 75
KLVELEHTL (also called CT83-001) | 50 to 75
SIIDTELKV | 50 to 75
QLGPVPVTI | 50 to 75
YLILSSHQL | 50 to 75
